Measurements as given in patent publication US20250163137A1.

Tests used:
[1] = target: human FDP (fibrin-fibrinogen degradation products) (human) (UniProt P02671); experiment: kinetic analysis, 1:1 binding fit (RU read-out; instrument not named)
[2] = target: human FDP (fibrin-fibrinogen degradation products) (human) (UniProt P02671); experiment: affinity test (RU read-out; instrument not named)
[3] = target: human FDP (fibrin-fibrinogen degradation products) (human) (UniProt P02671); experiment: comparison drawn from Tables 3 and 4 (kinetic analysis and affinity test)

B1: mAb 14G12-5 (antibody, V domains shown)
VH: EVQLVESGGGLVKPGGSLKLSCAASGFAFNAYDMSWVRQTPEKRLEWVAYISSSGDYTYYPDTVKGRFTVSRDNAKSTLYLHMGSLKSEDTAMYYCAVYYHYDEGLDYWGQGTALTVSS
VL: QIVLIQSPAIMSASPGEKVTMTCSASSSVNYMHWYQQKSGTSPKRWIYDTSKLASGVPARFSGSGSGTSYSLTISSMEAEDAATYYCQQWSSNPPTFGGGTKLEIKR
Kd [1]: 16.5 nM | koff [1]: 0.00225 s⁻¹ | kon [1]: 136000 M⁻¹ s⁻¹ | Kd [2]: 157 nM | fold binding capacity against canine FDP [3]: 10 fold
